Laboratory results taken from publication PMC3338870 (Nature, 2012).
Blank lines part the entries; values can stand above or below the molecule they belong to.

Key:
CD25 ectodomain = CD25 ectodomain (UniProt P01589)
γc ectodomain = biological target: T1, γc ectodomain (human, UniProt P31785 23-262, C-terminally biotinylated (staining reagent for yeast)); experiment: crystal structure
T1 sequence: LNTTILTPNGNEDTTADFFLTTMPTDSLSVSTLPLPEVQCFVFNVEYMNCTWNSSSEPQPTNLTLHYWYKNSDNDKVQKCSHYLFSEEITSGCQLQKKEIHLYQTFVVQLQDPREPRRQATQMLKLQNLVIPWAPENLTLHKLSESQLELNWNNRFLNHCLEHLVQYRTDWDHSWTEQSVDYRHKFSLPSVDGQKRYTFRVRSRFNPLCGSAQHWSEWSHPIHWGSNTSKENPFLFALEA

Sequence of CD25 ectodomain (P01589 22-240): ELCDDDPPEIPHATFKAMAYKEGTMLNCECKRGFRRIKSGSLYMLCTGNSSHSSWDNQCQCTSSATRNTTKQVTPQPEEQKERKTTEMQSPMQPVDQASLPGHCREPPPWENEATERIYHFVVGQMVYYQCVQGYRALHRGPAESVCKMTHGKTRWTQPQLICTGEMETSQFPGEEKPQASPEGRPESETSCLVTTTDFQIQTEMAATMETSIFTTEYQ

Kd (CD25 ectodomain): 1400 nM
Molecule: H9 F42A (from UniProt P60568 21-153) (designed binder)

Kd (CD25 ectodomain): 6.6 nM
Molecule: H9 super-2 (IL-2 superkine, second generation) (from UniProt P60568 21-153) (designed binder)

binding result (γc ectodomain): binds
B1: IL-2Rβ ectodomain (receptor)
chain: AVNGTSQFTCFYNSRANISCVWSQDGALQDTSCQVHAWPDRRRWNQTCELLPVSQASWACNLILGAPDSQKLTTVDIVTLRVLCREGVRWRVMAIQDFKPFENLRLMAPISLQVVHVETHRCNISWEISQASHYFERHLEFEARTLSPGHTWEEAPLLTLKQKQEWICLETLTPDTQYEFQVRVKPLQGEFTTWSPWSQPLAFRTKPAALGKDT
modifications: C-terminally biotinylated (staining reagent for yeast)
